# B1: FKB-6 (full-length) (natural protein, C. elegans, UniProt O45418 1-431, looked up)
# chain: MSGEKIDITPKKDGGVLKLIKKEGQGVVKPTTGTTVKVHYVGTLENGTKFDSSRDRGDQFSFNLGRGNVIKGWDLGVATMTKGEVAEFTIRSDYGYGDAGSPPKIPGGATLIFEVELFEWSAEDISPDRDGTILRTIIVEGSKNSFPNDTSKVLAHCVGTYQGTEFYNREVNFHIGEGSEEGLPEGVERALRRFQLGEKSKIEIRGHKYTYGNSPPAGSNIPVNATLEFTIFLKEFEKVPATWEMTAEEKLDAAKQAKDRGTMYLQKGNLKLAYNKYKRAEEVLEYEKSTDPEKMAERETILNGAYLNLSLVCSKQNEQLECIKWCDKVLETKPGNVKALYRKATALLTMNEVRDAMKLFEKIVEVEPENKAAAQQIIVCRNTIREQNERDKKRFKNLFAKISTEEDKPTNTVEDEDEIVASTSGSSTSNA
# notes: FKB-6, C. elegans large PPIase, homolog of human Fkbp51/Fkbp52; also called large PPIase FKB-6; source: E. coli BL21 (DE3) cod+, purified (HisTrap, gel filtration)
# Experiments:
# nematode HSP-90 = target: T1, nematode HSP-90 (C. elegans, UniProt Q18688 1-702); assay: native MS; LILBID-MS of the BS3-crosslinked sample and of non-crosslinked mixtures, sB-Raf:CDC-37:FKB-6:HSP-90 = 1:1:1:1 or as indicated; 25 mM Tris, 20 mM KCl, pH 7.5; details: both partners purified
# T1 construct: HSP-90, C. elegans (nematode) Hsp90; also called HSP-90 dimer; source: E. coli BL21 (DE3) cod+, purified (HisTrap, gel filtration)
# FKB-6 (full-length) = target: B1; assay: as above; details: both partners purified
binding result (nematode HSP-90),binding result (FKB-6 (full-length)),Binder
binds,binds,"nematode CDC-37 (natural protein, C. elegans, UniProt O02108 1-370, looked up, CDC-37, C. elegans (nematode) Hsp90 cochaperone; source: E. coli BL21 (DE3) cod+, purified (HisTrap, gel filtration)) MPIDYSKWKDIEVSDDEDDTHPNIDTPSLFRWRHQARLERMAEKKMEQEKIDKEKGTTSKKMEELEKKLAAADVTDKSDIQKQIDEVKAQEEAWRKKEAELEEKERLEPWNVDTIGHEAFSTSRINKITEKKPQAPKTDEEDTHAMSTFFETHESLLEKMAVLKNGAKSTELFLAEHPHMASEYTANWLTIEALNAAIDFNEEKMKTMAEQCIIIQYLLELSKSLNAVATNTTVQKQFFKKFEAAEPVYMKHYQDEVKAFEDRLRTRAQTKRDAAMEEAEAEEKAERMKSAPGGIDPQEVFEQLPEEMRKCFEAHDIEALKGVAQKMDEEVFKYHFDRCIASGLWVPGKADDDDDDEEAAPAEEEPTTSS"
binds,–,B1

# Reference: article PMC8196007, “HSP-90/kinase complexes are stabilized by the large PPIase FKB-6” (Scientific Reports, 2021)
